From article PMC3776929 (Cell, 2013)

T1: Swc2 (S. cerevisiae, UniProt Q03388 1-795)
T1 construct: Swc2, C-Module subunit of SWR1, S. cerevisiae; source: endogenous, S. cerevisiae; co-purified in the SWR1 complex
T1 sequence (looked up): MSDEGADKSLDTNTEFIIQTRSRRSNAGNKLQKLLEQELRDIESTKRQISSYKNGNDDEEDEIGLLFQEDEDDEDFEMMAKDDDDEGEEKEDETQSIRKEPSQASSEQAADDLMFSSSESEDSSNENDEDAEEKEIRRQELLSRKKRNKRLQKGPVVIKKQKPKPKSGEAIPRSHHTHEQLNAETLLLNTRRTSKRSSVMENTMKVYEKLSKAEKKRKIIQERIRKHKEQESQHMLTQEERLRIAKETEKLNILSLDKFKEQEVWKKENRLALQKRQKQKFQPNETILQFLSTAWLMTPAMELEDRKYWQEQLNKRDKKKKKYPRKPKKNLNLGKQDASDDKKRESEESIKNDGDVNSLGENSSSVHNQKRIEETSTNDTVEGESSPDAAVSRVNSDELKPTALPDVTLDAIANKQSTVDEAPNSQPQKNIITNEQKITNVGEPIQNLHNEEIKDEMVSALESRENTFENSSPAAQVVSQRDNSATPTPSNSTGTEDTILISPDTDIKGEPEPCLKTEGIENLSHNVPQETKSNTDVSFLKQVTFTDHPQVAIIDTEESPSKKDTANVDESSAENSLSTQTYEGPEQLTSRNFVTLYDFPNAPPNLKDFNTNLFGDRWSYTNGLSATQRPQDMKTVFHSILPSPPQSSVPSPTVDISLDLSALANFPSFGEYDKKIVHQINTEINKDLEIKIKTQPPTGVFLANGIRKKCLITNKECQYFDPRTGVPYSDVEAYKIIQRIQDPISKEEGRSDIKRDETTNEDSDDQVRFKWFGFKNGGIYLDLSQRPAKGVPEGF

B1: Swc4 (natural protein, S. cerevisiae, UniProt P53201 1-476, looked up)
chain: MSSSDIFDVLNIKQKSRSPTNGQVSVPSSSAANRPKPQVTGMQRELFNLLGENQPPVVIKSGNNFKEKMLSTSKPSPWSFVEFKANNSVTLRHWVKGSKELIGDTPKESPYSKFNQHLSIPSFTKEEYEAFMNENEGTQKSVESEKNHNENFTNEKKDESKNSWSFEEIEYLFNLCKKYDLRWFLIFDRYSYNNSRTLEDLKEKFYYTCRNYFKASDPSNPLLSSLNFSAEKEIERKKYLQRLLSRSAAEIAEEEALVVESKKFEMAAKRTLAERESLLRLLDSPHSDQTITQYLTSQGMSQLYNALLADKTRKRKHDLNIPENPWMKQQQQFAQHRQLQQLNVKKSEVKENLSPKKTKRQRQEMQTALKRKSESAYAEQLLKDFNSDERKALGVITHGEKLSPGVYLRSTKLSTFKPALQNKILAILQELSLPSRPVMPSFDVMERQEELLKKINTLIDLKKHVDKYEAGMSITK
notes: Swc4, N-Module subunit of SWR1, S. cerevisiae; source: endogenous, S. cerevisiae; co-purified in the SWR1 complex
B2: Rvb1 (natural protein, S. cerevisiae, UniProt Q03940 1-463, looked up)
chain: MVAISEVKENPGVNSSNSGAVTRTAAHTHIKGLGLDESGVAKRVEGGFVGQIEAREACGVIVDLIKAKKMSGRAILLAGGPSTGKTALALAISQELGPKVPFCPLVGSELYSVEVKKTETLMENFRRAIGLRIKETKEVYEGEVTELTPEDAENPLGGYGKTISHVIVGLKSAKGTKTLRLDPTIYESIQREKVSIGDVIYIEANTGAVKRVGRSDAYATEFDLETEEYVPLPKGEVHKKKEIVQDVTLHDLDVANARPQGGQDVISMMGQLLKPKKTEITEKLRQEVNKVVAKYIDQGVAELIPGVLFIDEVNMLDIEIFTYLNKALESNIAPVVVLASNRGMTTVRGTEDVISPHGVPPDLIDRLLIVRTLPYDKDEIRTIIERRATVERLQVESSALDLLATMGTETSLRYALQLLAPCGILAQTSNRKEIVVNDVNEAKLLFLDAKRSTKILETSANYL
notes: Rvb1, AAA+ ATPase, S. cerevisiae (YDR190C); also called AAA+ ATPase Rvb1; source: endogenous, S. cerevisiae; co-purified in the SWR1 and INO80 complexes
B3: Swc3 (natural protein, S. cerevisiae, UniProt P31376 1-625, looked up)
chain: MPAVLRTRSKESSIEQKPASRTRTRSRRGKRGRDDDDDDDDEESDDAYDEVGNDYDEYASRAKLATNRPFEIVAGLPASVELPNYNSSLTHPQSIKNSGVLYDSLVSSRRTWVQGEMFELYWRRPKKIVSESTPAATESPTSGTIPLIRDKMQKMCDCVMSGGPHTFKVRLFILKNDKIEQKWQDEQELKKKEKELKRKNDAEAKRLRMEERKRQQMQKKIAKEQKLQLQKENKAKQKLEQEALKLKRKEEMKKLKEQNKNKQGSPSSSMHDPRMIMNLNLMAQEDPKLNTLMETVAKGLANNSQLEEFKKFIEIAKKRSLEENPVNKRPSVTTTRPAPPSKAKDVAEDHRLNSITLVKSSKTAATEPEPKKADDENAEKQQSKEAKTTAESTQVDVKKEEEDVKEKGVKSEDTQKKEDNQVVPKRKRRKNAIKEDKDMQLTAFQQKYVQGAEIILEYLEFTHSRYYLPKKSVVEFLEDTDEIIISWIVIHNSKEIEKFKTKKIKAKLKADQKLNKEDAKPGSDVEKEVSFNPLFEADCPTPLYTPMTMKLSGIHKRFNQIIRNSVSPMEEVVKEMEKILQIGTRLSGYNLWYQLDGYDDEALSESLRFELNEWEHAMRSRRHKR
notes: Swc3, C-Module subunit of SWR1, S. cerevisiae; source: endogenous, S. cerevisiae; co-purified in the SWR1 complex
B4: Bdf1 (natural protein, S. cerevisiae, UniProt P35817 1-686, looked up)
chain: MTDITPVQNDVDVNGNNVNDDVSSNLKRPIDQGDPSNGLAEEENPANNQLHLKKARLDGDALTSSPAGLAENGIEGATLAANGENGYNATGSGAEDEQQGLKKEEGGQGTKQEDLDENSKQELPMEVPKEPAPAPPPEPDMNNLPQNPIPKHQQKHALLAIKAVKRLKDARPFLQPVDPVKLDIPFYFNYIKRPMDLSTIERKLNVGAYEVPEQITEDFNLMVNNSIKFNGPNAGISQMARNIQASFEKHMLNMPAKDAPPVIAKGRRSSAQEDAPIVIRRAQTHNGRPKRTIHPPKSKDIYPYESKKPKSKRLQQAMKFCQSVLKELMAKKHASYNYPFLEPVDPVSMNLPTYFDYVKEPMDLGTIAKKLNDWQYQTMEDFERDVRLVFKNCYTFNPDGTIVNMMGHRLEEVFNSKWADRPNLDDYDSDEDSRTQGDYDDYESEYSESDIDETIITNPAIQYLEEQLARMKVELQQLKKQELEKIRKERRLARGSKKRGKRSKGRSGSKNASSKGRRDKKNKLKTVVTYDMKRIITERINDLPTSKLERAIDIIKKSMPNISEDDEVELDLDTLDNHTILTLYNTFFRQYESSSGASNGLDGTSGVTRDASSLSPTSAGSRKRRSKALSQEEQSRQIEKIKNKLAILDSASPLSQNGSPGQIQSAAHNGFSSSSDDDVSSESEEE
notes: Bdf1, N-Module subunit of SWR1, S. cerevisiae; source: endogenous, S. cerevisiae; co-purified in the SWR1 complex
B5: Rvb2 (natural protein, S. cerevisiae, UniProt Q12464 1-471, looked up)
chain: MSIQTSDPNETSDLKSLSLIAAHSHITGLGLDENLQPRPTSEGMVGQLQARRAAGVILKMVQNGTIAGRAVLVAGPPSTGKTALAMGVSQSLGKDVPFTAIAGSEIFSLELSKTEALTQAFRKSIGIKIKEETELIEGEVVEIQIDRSITGGHKQGKLTIKTTDMETIYELGNKMIDGLTKEKVLAGDVISIDKASGKITKLGRSFARSRDYDAMGADTRFVQCPEGELQKRKTVVHTVSLHEIDVINSRTQGFLALFTGDTGEIRSEVRDQINTKVAEWKEEGKAEIVPGVLFIDEVHMLDIECFSFINRALEDEFAPIVMMATNRGVSKTRGTNYKSPHGLPLDLLDRSIIITTKSYNEQEIKTILSIRAQEEEVELSSDALDLLTKTGVETSLRYSSNLISVAQQIAMKRKNNTVEVEDVKRAYLLFLDSARSVKYVQENESQYIDDQGNVQISIAKSADPDAMDTTE
notes: Rvb2, AAA+ ATPase, S. cerevisiae (YPL235W); also called AAA+ ATPase Rvb2; source: endogenous, S. cerevisiae; co-purified in the SWR1 and INO80 complexes
B6: Arp4 (natural protein, S. cerevisiae, UniProt P80428 1-489, looked up)
chain: MSNAALQVYGGDEVSAVVIDPGSYTTNIGYSGSDFPQSILPSVYGKYTADEGNKKIFSEQSIGIPRKDYELKPIIENGLVIDWDTAQEQWQWALQNELYLNSNSGIPALLTEPVWNSTENRKKSLEVLLEGMQFEACYLAPTSTCVSFAAGRPNCLVVDIGHDTCSVSPIVDGMTLSKSTRRNFIAGKFINHLIKKALEPKEIIPLFAIKQRKPEFIKKTFDYEVDKSLYDYANNRGFFQECKETLCHICPTKTLEETKTELSSTAKRSIESPWNEEIVFDNETRYGFAEELFLPKEDDIPANWPRSNSGVVKTWRNDYVPLKRTKPSGVNKSDKKVTPTEEKEQEAVSKSTSPAANSADTPNETGKRPLEEEKPPKENNELIGLADLVYSSIMSSDVDLRATLAHNVVLTGGTSSIPGLSDRLMTELNKILPSLKFRILTTGHTIERQYQSWLGGSILTSLGTFHQLWVGKKEYEEVGVERLLNDRFR
notes: Arp4, actin-related protein, N-Module subunit of SWR1, S. cerevisiae; source: endogenous, S. cerevisiae; co-purified in the SWR1 complex

Columns and labels:
[1] = target: T2, Swr1, FLAG-tagged catalytic subunit of the SWR1 complex (S. cerevisiae, UniProt Q05471 1-1514); test: cross-linking; ∼45 μg affinity-purified SWR1 cross-linked with 1 mM DSS d0/d12 in SWR1 buffer, 37°C, 30 min; trypsin, SEC enrichment, LC-MS/MS, xQuest (CX-MS); settings: both partners purified
T2 construct: Swr1, catalytic ATPase subunit of the SWR1 complex, S. cerevisiae; HSA domain in the N-terminal half, split ATPase domain with long insert in the C-terminal half; also called Swr1-3xFLAG; Swr1 ATPase
T2 sequence (Q05471 whole entry, the tested form may be a part, one chain of several): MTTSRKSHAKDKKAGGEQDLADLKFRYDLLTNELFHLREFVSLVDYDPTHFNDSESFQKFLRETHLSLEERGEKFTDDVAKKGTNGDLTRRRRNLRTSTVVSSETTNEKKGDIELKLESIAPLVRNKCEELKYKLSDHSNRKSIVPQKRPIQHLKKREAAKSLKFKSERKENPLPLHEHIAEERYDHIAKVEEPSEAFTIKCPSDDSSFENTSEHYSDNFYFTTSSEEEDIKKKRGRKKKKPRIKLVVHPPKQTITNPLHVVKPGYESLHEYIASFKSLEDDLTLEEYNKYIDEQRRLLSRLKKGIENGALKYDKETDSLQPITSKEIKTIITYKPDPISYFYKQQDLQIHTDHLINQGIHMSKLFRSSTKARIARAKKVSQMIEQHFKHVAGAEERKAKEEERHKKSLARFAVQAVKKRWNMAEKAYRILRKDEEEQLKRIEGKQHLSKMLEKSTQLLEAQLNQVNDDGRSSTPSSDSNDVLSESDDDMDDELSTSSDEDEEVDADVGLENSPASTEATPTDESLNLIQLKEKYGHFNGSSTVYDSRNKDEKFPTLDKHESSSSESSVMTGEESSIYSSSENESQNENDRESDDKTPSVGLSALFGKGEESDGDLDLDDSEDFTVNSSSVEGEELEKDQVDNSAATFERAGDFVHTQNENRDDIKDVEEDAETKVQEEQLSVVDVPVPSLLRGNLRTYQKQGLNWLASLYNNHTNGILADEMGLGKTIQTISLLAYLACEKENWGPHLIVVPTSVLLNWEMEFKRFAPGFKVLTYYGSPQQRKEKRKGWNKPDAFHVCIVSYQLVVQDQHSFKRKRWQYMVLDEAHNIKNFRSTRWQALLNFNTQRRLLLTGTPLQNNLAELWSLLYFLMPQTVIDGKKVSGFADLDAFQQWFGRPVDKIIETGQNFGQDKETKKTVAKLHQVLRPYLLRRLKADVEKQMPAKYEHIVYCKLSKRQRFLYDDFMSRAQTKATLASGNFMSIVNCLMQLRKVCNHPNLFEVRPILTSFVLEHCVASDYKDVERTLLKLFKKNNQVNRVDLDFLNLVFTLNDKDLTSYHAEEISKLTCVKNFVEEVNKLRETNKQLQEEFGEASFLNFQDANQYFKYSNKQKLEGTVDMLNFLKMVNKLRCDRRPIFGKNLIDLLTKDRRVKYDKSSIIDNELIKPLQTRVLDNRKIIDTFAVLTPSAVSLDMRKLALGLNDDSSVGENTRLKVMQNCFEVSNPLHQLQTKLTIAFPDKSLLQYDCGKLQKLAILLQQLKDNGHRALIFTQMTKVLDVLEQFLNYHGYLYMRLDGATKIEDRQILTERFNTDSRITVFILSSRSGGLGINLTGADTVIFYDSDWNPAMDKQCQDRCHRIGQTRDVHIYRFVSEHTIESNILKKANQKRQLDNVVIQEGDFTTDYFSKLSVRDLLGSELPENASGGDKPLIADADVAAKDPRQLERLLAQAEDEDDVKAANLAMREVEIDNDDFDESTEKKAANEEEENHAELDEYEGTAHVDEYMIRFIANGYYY

[2] = target: B6; test: as above; settings: both partners purified
[3] = target: T2, Swr1, FLAG-tagged catalytic subunit of …; test: co-IP; FLAG affinity purification of SWR1 (or a subcomplex) from S. cerevisiae, eluted with 3× FLAG peptide; SDS-PAGE (4%-12% Bis-Tris), Coomassie or SYPRO Orange stain; band intensities normalised for protein size for the stoichiometry; settings: partners not purified
[4] = target: T3, Ino80 (UniProt P53115 1-1489); test: co-IP; INO80 complex purified by affinity and glycerol gradient, resolved on 4%-12% Bis-Tris gels in MOPS buffer; band intensities normalised for protein size; settings: partners not purified
T3 construct: Ino80, catalytic subunit of the INO80 complex
T3 sequence (P53115 whole entry): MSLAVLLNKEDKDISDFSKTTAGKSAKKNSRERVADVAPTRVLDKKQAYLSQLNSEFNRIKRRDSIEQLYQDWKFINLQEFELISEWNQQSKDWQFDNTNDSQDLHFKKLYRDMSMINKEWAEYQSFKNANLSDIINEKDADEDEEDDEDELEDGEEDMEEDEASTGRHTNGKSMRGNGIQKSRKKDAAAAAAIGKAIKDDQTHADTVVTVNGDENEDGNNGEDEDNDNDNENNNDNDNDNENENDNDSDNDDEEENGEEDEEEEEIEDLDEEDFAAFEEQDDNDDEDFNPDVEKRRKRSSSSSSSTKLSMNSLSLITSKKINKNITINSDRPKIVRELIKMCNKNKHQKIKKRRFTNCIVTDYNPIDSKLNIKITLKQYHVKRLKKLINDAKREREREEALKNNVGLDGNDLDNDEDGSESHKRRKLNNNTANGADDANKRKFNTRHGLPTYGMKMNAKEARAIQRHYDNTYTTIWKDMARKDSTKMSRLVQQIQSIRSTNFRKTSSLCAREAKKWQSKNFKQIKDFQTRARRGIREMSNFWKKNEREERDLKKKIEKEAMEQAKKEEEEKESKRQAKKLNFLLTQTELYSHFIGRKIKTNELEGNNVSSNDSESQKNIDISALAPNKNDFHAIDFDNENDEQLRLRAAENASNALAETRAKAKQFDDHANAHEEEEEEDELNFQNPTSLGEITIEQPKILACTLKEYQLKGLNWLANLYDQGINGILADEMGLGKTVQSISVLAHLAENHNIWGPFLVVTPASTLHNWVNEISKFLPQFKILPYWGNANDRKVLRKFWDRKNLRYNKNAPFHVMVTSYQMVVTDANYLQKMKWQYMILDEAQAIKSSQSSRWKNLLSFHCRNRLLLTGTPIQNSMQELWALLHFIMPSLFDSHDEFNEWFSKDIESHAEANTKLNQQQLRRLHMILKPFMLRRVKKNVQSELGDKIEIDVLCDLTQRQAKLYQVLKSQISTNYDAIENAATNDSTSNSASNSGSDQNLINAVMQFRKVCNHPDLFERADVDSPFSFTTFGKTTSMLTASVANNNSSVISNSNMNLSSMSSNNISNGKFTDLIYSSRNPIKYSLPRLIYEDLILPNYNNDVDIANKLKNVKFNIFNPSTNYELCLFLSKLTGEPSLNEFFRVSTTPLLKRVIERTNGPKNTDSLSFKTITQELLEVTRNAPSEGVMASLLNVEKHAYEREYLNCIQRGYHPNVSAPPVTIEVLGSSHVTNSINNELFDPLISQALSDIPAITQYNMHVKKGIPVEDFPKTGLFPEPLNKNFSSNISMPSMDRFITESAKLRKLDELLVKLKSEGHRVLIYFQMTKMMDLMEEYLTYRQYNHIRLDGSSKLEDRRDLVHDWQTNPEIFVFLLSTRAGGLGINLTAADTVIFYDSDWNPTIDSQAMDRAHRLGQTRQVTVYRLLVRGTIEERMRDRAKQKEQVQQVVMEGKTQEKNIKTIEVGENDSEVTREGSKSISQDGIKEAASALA

[5] = target: T1, Swc2; test: cross-linking; ∼45 μg affinity-purified SWR1 cross-linked with 1 mM DSS d0/d12 in SWR1 buffer, 37°C, 30 min; trypsin, SEC enrichment, LC-MS/MS, xQuest (CX-MS); settings: both partners purified
[6] = target: B3; test: as above; settings: both partners purified

| binding result [1] | binding result [2] | stoichiometry N [3] | stoichiometry N [4] | Binder | other results |
| --- | --- | --- | --- | --- | --- |
| binds | binds | – | – | B1 | – |
| – | binds | ~3 | ~3 | B2 | – |
| binds | – | – | – | B3 | – |
| – | – | – | – | B4 | binding result [5]: binds |
| – | – | ~3 | ~3 | B5 | – |
| – | – | – | – | B6 | binding result [6]: binds |
